Reference: paper PMC8605023 (Nature Communications, 2021)

T1: G3BP2 NTF2 domain (human, UniProt Q9UN86 11-133)
T1 sequence (looked up): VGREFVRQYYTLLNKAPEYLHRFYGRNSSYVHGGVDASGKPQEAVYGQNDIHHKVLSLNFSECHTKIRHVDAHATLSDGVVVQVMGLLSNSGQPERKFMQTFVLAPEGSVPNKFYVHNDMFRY


Columns and labels:
Settings in all cases: both partners purified
[1] = biological target: T2, Radixin FERM domain (human, UniProt P35241 5-295)
T2 construct: also called RDX

[2] = biological target: Ezrin FERM domain (human, UniProt P15311 2-296)
[3] = biological target: T1, G3BP2 NTF2 domain

Chain of Ezrin FERM domain (P15311 2-296): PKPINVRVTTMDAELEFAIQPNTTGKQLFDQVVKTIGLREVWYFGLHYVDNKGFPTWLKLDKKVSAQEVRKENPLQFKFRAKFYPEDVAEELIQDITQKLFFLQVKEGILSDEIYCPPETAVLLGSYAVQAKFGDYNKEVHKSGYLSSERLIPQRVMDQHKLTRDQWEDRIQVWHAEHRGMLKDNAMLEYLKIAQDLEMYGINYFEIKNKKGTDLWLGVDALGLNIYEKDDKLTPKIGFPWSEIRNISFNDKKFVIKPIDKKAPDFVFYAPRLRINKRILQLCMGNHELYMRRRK
T2 sequence (P35241 5-295): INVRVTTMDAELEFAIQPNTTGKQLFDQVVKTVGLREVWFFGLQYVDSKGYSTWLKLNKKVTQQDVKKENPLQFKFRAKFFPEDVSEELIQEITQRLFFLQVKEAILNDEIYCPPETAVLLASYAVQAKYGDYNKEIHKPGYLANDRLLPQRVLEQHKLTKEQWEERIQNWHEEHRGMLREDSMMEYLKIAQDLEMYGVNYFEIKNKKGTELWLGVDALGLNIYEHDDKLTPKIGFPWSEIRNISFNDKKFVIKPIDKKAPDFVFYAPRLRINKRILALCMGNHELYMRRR

Binder | IC50 [1] [µM] | IC50 [2] [µM] | Ki [2] [µM] | IC50 [3] [µM] | Ki [3] [µM]
VETSNSFDVLKSEDAQY [NSP3 peptide 2019-2034 (Sars-CoV2)] | 1530 | 1530 | 37.6 | – | –
QGKPLEFGATSAALQY [NSP3 peptide 956-971 (Sars-CoV2)] | – | – | – | 100 | 35
